Drawing on PMC7716773, “Known Evolutionary Paths Are Accessible to Engineered ß-Lactamases Having Altered Protein Motions at the Timescale of Catalytic Turnover” (Frontiers in Molecular Biosciences, 2020), this text covers Km, kcat and kcat/Km for one substance.

The subject of this data set is CO/N=C(\C(=O)N[C@@H]1C(=O)N2C(C(=O)O)=C(COC(C)=O)CS[C@H]12)c1csc(N)n1. Kind of data set: purified protein. To be noted: 27°C, cefotaxime 12.5-200 μM, enzyme 5–70 nM.

On to “TEM-1 ß-lactamase (TEM-1) (Escherichia coli)”, for which the Km was 1,500 ± 900 μM, the kcat turned out to be 1 ± 0.5 s⁻¹ and the kcat/Km was determined as 680 ± 530 M⁻¹ s⁻¹.

For orientation: kcat means the maximal rate divided by the concentration of active sites. What is called kcat/Km is the turnover number divided by the Michaelis constant.
